Biological target: human Slo1 (human), Q12791
Test: cell-based or functional assay

Chain of human Slo1 (human), Q12791 (Q12791 whole entry): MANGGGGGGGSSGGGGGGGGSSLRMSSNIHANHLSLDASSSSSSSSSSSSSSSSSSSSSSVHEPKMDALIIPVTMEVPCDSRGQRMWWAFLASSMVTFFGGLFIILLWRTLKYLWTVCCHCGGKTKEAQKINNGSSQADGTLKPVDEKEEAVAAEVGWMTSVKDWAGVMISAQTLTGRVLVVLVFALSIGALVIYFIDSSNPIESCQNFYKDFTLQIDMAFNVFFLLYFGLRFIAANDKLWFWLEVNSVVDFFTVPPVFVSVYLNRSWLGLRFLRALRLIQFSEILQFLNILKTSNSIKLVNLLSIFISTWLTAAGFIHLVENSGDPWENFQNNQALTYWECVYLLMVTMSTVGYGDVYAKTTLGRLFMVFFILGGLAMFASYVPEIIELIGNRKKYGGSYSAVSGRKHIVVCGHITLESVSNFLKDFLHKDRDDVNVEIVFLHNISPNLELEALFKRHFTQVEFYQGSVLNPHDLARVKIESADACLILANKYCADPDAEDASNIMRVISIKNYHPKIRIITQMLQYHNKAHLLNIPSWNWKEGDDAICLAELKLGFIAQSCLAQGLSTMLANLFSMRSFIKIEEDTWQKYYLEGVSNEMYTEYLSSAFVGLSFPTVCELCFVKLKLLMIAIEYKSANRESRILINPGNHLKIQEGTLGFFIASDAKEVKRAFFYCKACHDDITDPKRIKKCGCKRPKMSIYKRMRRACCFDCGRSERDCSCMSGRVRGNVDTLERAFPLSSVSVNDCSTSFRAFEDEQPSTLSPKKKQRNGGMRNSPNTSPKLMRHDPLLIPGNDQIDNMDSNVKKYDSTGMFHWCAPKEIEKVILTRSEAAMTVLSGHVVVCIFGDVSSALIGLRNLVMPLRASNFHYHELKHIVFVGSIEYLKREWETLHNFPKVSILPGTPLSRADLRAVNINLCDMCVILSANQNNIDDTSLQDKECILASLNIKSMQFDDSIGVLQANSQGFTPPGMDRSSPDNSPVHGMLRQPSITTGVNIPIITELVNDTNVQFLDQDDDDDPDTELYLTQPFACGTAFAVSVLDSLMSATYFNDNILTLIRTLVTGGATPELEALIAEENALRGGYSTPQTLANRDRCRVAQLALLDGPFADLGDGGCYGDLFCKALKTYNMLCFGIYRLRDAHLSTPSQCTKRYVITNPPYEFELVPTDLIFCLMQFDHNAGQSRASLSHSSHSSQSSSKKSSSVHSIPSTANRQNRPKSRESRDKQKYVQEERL

leftward shift in the Slo-1 activation curve (V1/2act) in the presence of 50 µM free Ca2+: 15 mV
B1: human BK beta 3, Q86W47 1-210 (protein)
chain: MAKLRVAYEYTEAEDKSIRLGLFLIISGVVSLFIFGFCWLSPALQDLQATEANCTVLSVQQIGEVFECTFTCGADCRGTSQYPCVQVYVNNSESNSRALLHSDEHQLLTNPKCSYIPPCKRENQKNLESVMNWQQYWKDEIGSQPFTCYFNQHQRPDDVLLHRTHDEIVLLHCFLWPLVTFVVGVLIVVLTICAKSLAVKAEAMKKRKFS

Reference: patent US6994968
